Reference: the nanobody polyreactivity screen of Harvey et al. (2022)

Assay: yeast display, Sf9 membrane polyspecificity reagent, FACS + sequencing; frameworks hold sequencing errors
Method in brief: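 Synthetic nanobody libraries on Saccharomyces cerevisiae BJ5465 were galactose-induced for 36–48 hours, stained 1 hour at 4 °C with 10% biotinylated, detergent-solubilized Sf9 membrane reagent and enriched on streptavidin microbeads. FACS then separated cells into low and high (top ~1%) gates by anti-HA (expression) and streptavidin (reagent binding) fluorescence. Genes were colony-PCR amplified, MiSeq 2 × 250 sequenced and CDR-length filtered. A clone's polyreactivity label is that of its gate of origin.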

Sequence | polyreactivity (PSR sort gate)
QDQLVESVGGLVQAGGSLRLSCAASGRIVKYAMGWYRQAPGKERELVAAISGSGGTTYYADSVKWRFTISRDNAKNTVYLQMNSQKPEDTAVYYCNKTPRNLRILQHSSQSMDYWGQGTQVTVSS | high polyreactivity
QDQLVESVGGLVQAGGSLRLSSAASGFIFYLYAIGWDRQAPGKERDLVAAITRRGGSTYYEDSVKGRFTISRDNAKNTVYLQMNSLKPEDTAVYDCAADHYGFFSAGDFDYWGQGTQVNVSS | high polyreactivity
QDQLVESVVCLVQAGLSLRLSGASSVRIFRYYAMGWYRQAHGKERELVAAINSDGRTYYADSVKGRFTISRDNANNTVYLQMNSLKPEDTAVYYCAADHHSYRYGGYYYWGQGTQVTVAS | low polyreactivity
QDQLVESWGGLVQAGCSLRLTCAASGSTFWWYAMGWNRQAPGKQREFDAPINWSGSRTYYADSVKGRFTISRDNAKNTVYLQINSLNPEDTAVYYCAAVGRWGVTGSHHDAYDYWGQGTQVTVSS | high polyreactivity
QDQLVESWGGLVQAGGSLRLSCAASGFTFNKYAMGWYRQAPGKERELVAAISSSGGRTSYADSVKGRFTISRDNAKNTVYLQMNSLKPEDTAVYYCNKVSTADMGYWGHGTQVTVSS | high polyreactivity
QDQLVESWGGLVQAGGSLRLSCASSGITVYGYTMGWYRQAPGKERELVAGISRGGSTYYADSVKGRFTISRDNAKNTVYLQINSLKPEDTAVYYCAVESFYRHASLYDYWGQGTQVTVSS | high polyreactivity
QDQLVETGGGLVQAGGSLRLSCAASRNTFAQKAMGRSRQAPGKERELVAAITDGTSTNYADSVKGRFTISRDNAKNTVYLQMNSLKPEDKAVYYCAAESLYTLFYWGYDYWGQGTQVTVSS | low polyreactivity
QDQLVETGLGLVQAGGSLRLSLAASGRTFSYAKAWYRQEPGKERELVAAITKRGGSTNFADSVKGRFTISRDNAKNTVYLQMNSLKPEDTAVYYCATDPYHGSYLTYGRMDYWGQGTQVTVSS | high polyreactivity
QDQLVQSGGGLVQAGGSLRLSCDASGGMFDSNAMGRYRQPPGKERELVAAISDSGGSTYYADSVKGRFTISRDNAKNTVYLQMNSLKPEDTAVYYCAGDSDYHFVNYRFGMDYWGQGTQVTVSS | low polyreactivity
QDQLVVSGGGLFQAVGSLRLICAASGIFRSYAMGWYRQAPGKERELVAAITGGASGTYYADSVKGRFTISRDNAKNTVYLQMNSLKPEDTAVYFCAAVNRVYFPFRLQVIYGSWGQGTQVTVSS | high polyreactivity
QDQRVESGGGLVQAGGSLRLSCAASGITLEFYAMGWYRQAPGNERELVARIRSGGSTNYAVSVKGRFTISRDNAKNTVYLQMNSLKPDDTAVYYCAAYLRTDRYGYWGQGTQVTVSS | high polyreactivity
QDQRVESGGGLVQAGGSLRLSCAASGRIFGTYTMGWYRQAPGKERELVAAITTGGITNYADSVKGRFTISRDNAKNTVYLQMYSLKPEDTAVYYCNARWDYGAYEYWGQGTQVTVSS | low polyreactivity
QDQVVESGGGVVQAGGSLRLICAAYGSTLRYYDMGWYRQAPGKERELVAAISRGCSTYYADSVKGRFTISRDNAKNTVYLLMNSLKPEETAVFYCNKEYPSSYEYDYWGQGTQVTVSS | low polyreactivity
QEHLVESGGGLDQAGGRLRLSCAASGSIFAAYAMGWYRHAPGKERELVAAIKWTDGSTYYADSVKGRFTISRDIAMNTVYLQMNSLKPEDTAVYYCIRRQYGRKKQYDYWVQGTQVTVSS | high polyreactivity
QEQHVESGGGLVQAGGSLRLSSAASVNIIGFYAKGWYREAPGKESEFVAAISFGTDRTYYADSVKGRFTISRENAKNTVYLQMNSLKPEDTALYYCNRRCNNGVRYGECDYWGQGTQVTVSS | high polyreactivity
QEQLQECGGGLVQAGGSLRLSCAASGNVFDADIMGWYRQAPGKERELVASVTDGGSTNYADSVKGRFTFSRDIAKNTVYLQMNSLKPEDTAVYYCAAIVYPDILTYFDYDYDYFYWGQGTQVTVGS | low polyreactivity
QEQLQERGGGLVQAGGSLRLSCAASGSIFKVVDMGLYRQAPAKEREFVATIGEGGNTYYADSVKGRFTISRDNAKNTVYLQMNSLKPEDTAVYFYAVVLGTYYRYTYWGQGTQVTVSS | low polyreactivity
QEQLQESCGGLVLAGGSLRLSCASSGSISAQAYMGWDRQAPGKEREHVAGINYGDNTNYADSVKGRFTISRDNEHRVSADEQPETGRYRGVLLRGFLELFYYYIYWGQGTQVTVSS | high polyreactivity
QEQLQESGGGLVKAGGSLRLSCAASGNISPRDAMGWYRQAPGEERDLVASNAYSAITYYADGVKGRYTISRDNAKNTVYVQMNSLKPEDTDVYYCEFYQFTYPVFPAYWGQGTQVTVSS | low polyreactivity
QEQLQESGGGLVLAGGSLRLSCSASGNISVYGSMGWYRQAPGKELEFVATIDPGTNTNYADSVKDRFTISRDNAKNTVYLQMNSLKPEDRAVYYCAVEAGSDWPFRYWGQGTQVTVSS | low polyreactivity
QEQLQVSGGHLVQAGGSLRLSCAASGTIYGLTSMGWYRQAPGKEREFVAAITDGGNTNYADSVKGRFTISRDNAKKTVYLLMFCLKPEDTAVYYCAVLFSDDAYYAYWCQGTQVTVSS | low polyreactivity
QEQLVESGAGLVQAGGSLRLSCAASGSIFTLYGMGRYRQAPGKERELVAAITWSGGRTYYADSVKGRFTISRDNAKNTVYLQMNSLKPEDTAVYYCAAYRYVSWYYPDDYWGQGTQVTVSS | high polyreactivity

Sequence | polyreactivity (PSR sort gate)
QEQLVESGGGLDQAGGSLRLSCAASGSTFSGYALAWYRQAPGKERELVAAISWRGVRTYYADSVKGRFSISRDNAKNRVYLQMNSLKPEDNAVYYCAAVGYITKEFYWGQGTKVTVSS | high polyreactivity
QEQLVESGGGLDQAGGSLRLSCAASGYTFVNYAMGWYRQAPGKERELVAAITSRGSSTYYADSVKGRFTISRDNAKNTVYLQMNSLKPEDTAVYYCAAYSSSLQGGYWGQGTQVTVSS | high polyreactivity
QEQLVESGGGLVQAGGSLRLSCAASGFTFYFNAMGWYRQAPGKERELVAGITSDGITYYADSVKGRFTISRDNANNTVYLQMNSLKPEDTAVYYCAARKLEWDIKNDYCGQGTQVTVSS | low polyreactivity
QEQLVESGGGLVQAGGSLRLTCAASGRTFFRYARGWYRQAPGKEREVVAAISSGGSTYYADTVKGRFTISRDNAKNTVYLQMNSLKPEDTAVYYCATRNYRLWPYVSVAYDYCGQGTQVTVSS | high polyreactivity
QEQQQESGGGLVQAGGSQRLSCAASGYIFYFQYMGWYRQAPGKEREFVAAISDGANTNYADSVKGRFTISRDNAINTEYLQMNSLKPEDTAVYYCAVYADENYYYIYWGQGTQVTVSS | low polyreactivity
QFHLVESGGGLVHAGGSLRLSCAASGNIFPPNTMGWYRQAPGKATELVAVITWSDGGTYADSVKGRFTISRDNAKKTVYLQMNSLKPEDTAVYYCNADYYFAAPKGEYTAWYDYWGKGTQVTVSS | low polyreactivity
QFHLVESGGGLVQAGGSLRLSCAASGRIFSEYAMGWYRQAHGKEMELVASISTSGGSTYYADSVKGRFTISRDNAKNTVYLQKYSLKPEDTEVYYCNVAYYRYPSYTYGYDHWGQGTQVTVSS | high polyreactivity
QFHLVESGGGLVQAGGSLRLSCAAYGIIFYSYTMGWYRQAPGKERELVAAISRSGGSTYYADSVKGRFTISRDNAKNTVYLQMNSLKPEDTAVYYCAQVGNTAGYDYWGQGSQVTVSS | high polyreactivity
QFQIVDSLEGLVQEAGTLRLSSAASGSIFYRYAKGGYRQAPRKERELVATITSSGGRTYYADSVKGRFTISRDNAKNTVYLQMNSLKPEDTAVNYCKPRDWGRTRGGGYPWLYRYDYWGQGTQVTVSS | low polyreactivity
QFQIVESGGGLVQAGGSLRLSCDASGSIFTWYAMGWYRQAPGKERELVAAITRGGSTYADSVKGRFTISRDNAKNSVYLQMNSLKPEDTAVYYCNAVYGVYDFNYWGQGTQVTVSP | low polyreactivity
QFQLEESGGGLVQAGGSLRLSCAASGSTFSSYVMGWYRQAPGKERELVAAISSIGGSTYYADSVKGRFTISRDNAKNTVYLQMNSLKPEDTAVYYCAAEPPGSTYEGGYLGQGTQVTVSS | low polyreactivity
QFQLVDSGGGLVHAGGSRSLSCADSGLIFHNNAMGWYRQAPGKEREFVARITRSGGTTYYADSVKGRFTISRDNAKNTVYLQMNSLKPEDTAVYYCAAEQSVSFLVFTGFKFDYWGQGTHVTVSS | low polyreactivity
QFQLVDSGGGLVQAGGSLRLSCAASGRTFWFYGMGWYRQAPGKEREFVARISGSGGSKYYADSVKGRFTITRDNAKNTVYFQMNSLKPEDTAVYYCAKDNRYPYPSGLDYWGQGTQVTVSS | high polyreactivity
QFQLVDSGRGLVQAGGSLRLSCAASGRTFPHYAMGWYRQAPGKERELVAAISSRGGSTYYADSVKGRFTISRDNVKNTVYLQMNSLKPEDTAVYYCAATVGLYRSREYGYWGQGTQVTVSS | low polyreactivity
QFQLVESGGGIVQAGGSLRIAVRPPDLPSTLNHLGWSRQAPGKERSVVAAITRGGSTNYADSVKGRFTISRDNAKNTVYLQMNSLKQEDTAVYYCAAPYAGWRDGGDYWGQGTQVTVSS | low polyreactivity
QFQLVESGGGLVPARGSLRLSCAASGLIFKRNAMGWYRQAPGKERELDASNSGRGGSTYYADSLTGRFTISRDNAKKTVYLQMNSLKPEDTAVYFCAADGPPLGRPSYRLFYGYDYWGQGSQVTVSS | high polyreactivity
QFQLVESGGGLVQAGASLRLSCASSLSTFDHNAMGSYRQAPGKESELVAAISSSGGRTYYADSVKGRFTISRDNAKNTVYLQMNSLKPEDTAVYYCAAVVRRAPEFDYSGQGTQVTVSS | high polyreactivity
QFQLVESGGGLVQAGGILRLSCAASGITFRIYAMGWYRQAPGKERELVAGISSSGSTNYADSVKGRFTISRESAKNTVYLQMNSLKPEDTAVYYCAADAFYKFDYWGQGTQVTESS | high polyreactivity
QFQLVESGGGLVQAGGSHRLSCAASGRIVDYYAMGWYRQAPGKERDLVAAISTSGGSTYYADSVKGRFTISRDNAKITVYLLMNSLKPEDTAVYYCGKDITVTYPVLDYDYWGQCTQVTVSS | low polyreactivity
QFQLVESGGGLVQAGGSLPLSCAASGSIFLWTAMGWYRQAPGKERELVAAITLRGGSTYYADSLKGRFTISRDNAKYAVYLQLNSLKPEDTAVFYCAADVFLLYDYWGQGTQVTVSS | low polyreactivity
QFQLVESGGGLVQAGGSLRLICAASGIIFKLNAMGWYRQAPGIETELVAAITYRGGTTYYADSVKGRFTISRDNAKNTVYVQMNSLKPEDTAVYYCAVAVTSYSSKKLYYWGQGTQVTVSS | low polyreactivity
